Measurements as given in PMC8808172 (The Journal of Biological Chemistry, 2021).

T1: ClpX N-terminal zinc-binding domain (ClpXN; amino acids 1–55) (E. coli, UniProt P0A6H1 1-55)
T1 sequence (looked up): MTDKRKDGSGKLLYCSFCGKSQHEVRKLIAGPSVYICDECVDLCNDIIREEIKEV

B1: ClpX(A30S) (enzyme)
chain: not shown
B2: ClpX (WT) (enzyme)
chain: not shown

Legend:
[1] = target: T1, ClpX N-terminal zinc-binding domain …; experiment: NMR titration
[2] = target: the molecule itself; experiment: SEC
[3] = target: B1; experiment: filter retention assay
[4] = target: B2; experiment: filter retention assay

Binder	stoichiometry N [2]	also measured
MKCPVCHQGEMVSGIKDIPYTFRGRKTVLKGIHG (domain or fragment, E. coli, UniProt Q46864 1-34, looked up) [MqsA_(1–34)]	–	binding result [1]: binds
ClpX(L12S) (enzyme) not shown	6	–
ClpX(L13A) (enzyme) not shown	6	–
ClpX(L13D) (enzyme) not shown	6	–
ClpX(H23A) (enzyme) not shown	6	–
B1	6	–
MKCPVCHQGEMVSGIKDIPYTFRGRKTVLKGIHG (domain or fragment, E. coli, UniProt Q46864 1-34, looked up) [Gfp-MqsA_(1–34)]	–	binding result [3]: binds; binding result [4]: binds
B2	6	–
